# From publication PMC4310740
# Legend:
# [1] = target: Alexa 594-labeled N-WASP VCA (S430C) (UniProt O00401); test: fluorescence polarisation
# [2] = target: G-actin (rabbit muscle actin monomers) (rabbit) (UniProt P68135); test: fluorescence polarisation
# Sequence of Alexa 594-labeled N-WASP VCA (S430C) (O00401 whole entry S430C): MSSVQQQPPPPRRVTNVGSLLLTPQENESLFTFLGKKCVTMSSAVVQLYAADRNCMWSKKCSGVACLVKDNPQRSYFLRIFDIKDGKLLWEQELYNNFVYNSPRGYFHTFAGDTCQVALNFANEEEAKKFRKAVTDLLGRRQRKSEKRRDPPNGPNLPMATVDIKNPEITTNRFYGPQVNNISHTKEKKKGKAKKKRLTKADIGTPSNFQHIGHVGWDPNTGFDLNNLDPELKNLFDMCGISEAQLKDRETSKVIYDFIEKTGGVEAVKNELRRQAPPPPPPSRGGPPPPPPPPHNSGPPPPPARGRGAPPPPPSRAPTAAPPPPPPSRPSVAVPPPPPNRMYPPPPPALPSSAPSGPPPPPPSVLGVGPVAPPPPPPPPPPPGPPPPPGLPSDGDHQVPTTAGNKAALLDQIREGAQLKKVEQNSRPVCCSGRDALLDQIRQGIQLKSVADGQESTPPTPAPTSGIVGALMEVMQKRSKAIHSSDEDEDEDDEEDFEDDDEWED
Kd [1],fold reduction of affinity against wild-type WAVE1 GST-VCA [2],Substance
106 nM,–,G-actin (rabbit muscle actin monomers) (from UniProt P68135 1-377) (natural protein)
–,< 2 fold,human WAVE1 GST-VCA K507Q (from UniProt Q92558 1-559) (domain or fragment)
